The DeepSol protein solubility set

Test: soluble on expression in E. coli; label from the status in PepcDB or PDB records

**Q.** Which “soluble on expression in E. coli” value does the source give for “MSELTKAQQYNFNKLQKKIRRNTGNAIADYNMIEDGDRIMVCLSGGKDSFTMLDILMSLKKSAPISFDLIAVNLDQKQPGFPAHILPEYLEKLGVEYKIVEEDTYSIVQDKIPEGKTTCSLCSRLRRGILYRTAKELGATKIALGHHRDDILETMFLNMFYGGKLKGMPPKLVSDNGEHVVIRPLAYCREKDIIKYADMRDYPIIPCNLCGSQPNMQRQNVKQMLNTWDKQFPGRIETMFTAMQNVVPSHLADFNTFDFKSINRDSGVINGGDIGFDKEEMPTLPVDADDAVAEFDPSLKLDVVNVD” here?
**A.** Its value is “not soluble”.

**Q.** With “MAESSVTFTISTDGGGKINVIYDGSHKTNATDSSVNSESVTPCESLDTTKESEMLKAGLRRRAPSISTESSVTFSSISDFEDLNLRCSTPLVCDDDTNSNSDASFASCVSEVSEMSIKTTSSQETVTSASGLKESKPMEKMEEKREVRMKSYEQVNKERYGGWTEVVNWRAAKKPQSVAPSQSSTKKTLSNNGTTTDHGITSASRRTPNSTHVASKPQLNTRATSVQGSAPSSGSKSRIPSLANRQVYNNSPQLFHPFPPSRCNSSNGSYASTVTASPSVASYSPNPSQPPPPVAVAKLNMKMTITTDSNGKMSVHFSNSNSSESWSINGLLGNSDKINVSKMF” as the sequence, how does the “soluble on expression in E. coli” value read?
**A.** The value was “not soluble”.

**Q.** For “MEGQRWLPLEANPEVTNQFLKQLGLHPNWQFVDVYGMDPELLSMVPRPVCAVLLLFPITEKYEVFRTEEEEKIKSQGQDVTSSVYFMKQTISNACGTIGLIHAIANNKDKMHFESGSTLKKFLEESVSMSPEERARYLENYDAIRVTHETSAHEGQTEAPSIDEKVDLHFIALVHVDGHLYELDGRKPFPINHGETSDETLLEDAIEVCKKFMERDPDELRFNAIALSAA”, which “soluble on expression in E. coli” value is on record?
**A.** Its value is “soluble”.

**Q.** For “VFILPDCNPVLKFISSARERLLIIAPYIDFRWYKDDGLLEAIKGAKESGAEVKVVLNAKYAKEEAVSTLRKEGVKVELIDNLHGKAIVSDKRLLITSANMNMHGLKLNREIGVIINNPEMADAVIKEFEGGEVTPLD”, which “soluble on expression in E. coli” value is on record?
**A.** The value was “not soluble”.

**Q.** For “YIDILNQARDYVYIMTPYLILDSEMEHALQFAAERGVDVKIIMPGIPDKKVPFALAKRYFPALLDAGVKIYEFTPGFVHAKVFIADDIKAVVGTINLDYRSLYHHFECATYMYQTDCLVDIKADFKETLKQSRRVTRSTLQKEKISTKLIGLVVKLVAPLL”, which “soluble on expression in E. coli” value is on record?
**A.** Its value is “not soluble”.

**Q.** Which “soluble on expression in E. coli” value does the source give for “MKRRCVFMRLSLLDYVPLFEGRTPNDALKHSIKLAQHAEKLGYLRYWVAEHHQVYSVVSSAPEIIMMSILEHTQHIRVGSGGVMLPHYSPYKVAEQFKIMEARHPQRIDMAIGRSPSFKNVNAALNENKNEKLPFNTQITDLLKYFNNDTTQDHRFKSLLATPMVTSFPQLYILGMSNRSAKLAAQRGLPFVIARMGQSETDLHEAISTYRKYFKAYHGEINNAKPYVILATFVVTASNLSRVKQLLHTLQLWLMRINYLNQPKSYPSIETAQNKHYSQRELEKLEKMKSKIIYGMPNDVAEQLTLLHQQFKVDEIIILPHVFGEDARMELIELIANELIPSCSRDEF” here?
**A.** Its value is “not soluble”.

**Q.** With “MGHHHHHHSHMTRVKLQDGVHIIKETKEEVTPEQLKLMRTQDVKYIEMKRVAEAKKIERLKSELHLLDFQGKQQNKHVFFFDTKKEVEQFDVATHLQTAPELVDRVFNRPRIETLQKEKVKGVTNQTGLKRIAKERQKQYNCLTQRIEREKKLFVIAQKIQTRKDLMDKTQKVKVKKETVNFPAIYKFQSRRKR” as the sequence, how does the “soluble on expression in E. coli” value read?
**A.** The value was “not soluble”.

**Q.** For “NEPVAVIGVGCRFPGDIDGPERLWDFLTEKKCAITAYPDRGFTNAGTFAESGGFLKDVAGFDNRFFDIPPDEALRMDPQQRLLLEVSWEALEHAGIIPESLRLSRTGVFVGVSSTDYVRLVSASAQQKSTIWDNTGGSSSIIANRISYFLDIQGPSIVIDTACSSSLVAVHLACRSLSTWDCDIALVGGTNVLISPEPWGGFREAGILSQTGCCHAFDKSADGMVRGEGCGVIVLQRLSDARLEGRRILAILTGSAVNQDGKSNGIMAPNPSAQIGVLENACKSARVDPLEIGYVEAHGTGTSLGDRIEAHALGMVFGRKRPGSGPLMIGSIKPNIGHLEGAAGIAGLIKAVLMVERGSLLPSGGFTEPNPAIPFTELGLRVVDELQEWPVVAGRPRRAGVSSFGFGGTNAHVIVEEA”, which “soluble on expression in E. coli” value is on record?
**A.** Its value is “soluble”.

**Q.** With “MPLFAGFSPRSGQGDLAEFVDIINGARRDLLFVTAFALPDSILDALLGQPHDDVLRYGLQNTASRITGFHADRTAEFAATALLNNGLEGWLKEGLKGQKGNLLVHTKAIVTDFTSEAPVIISGSHNLSVGASQSNDENFLIIRGDIDLEHHHHHH” as the sequence, how does the “soluble on expression in E. coli” value read?
**A.** Its value is “soluble”.

**Q.** For “MTGVRQDAWTKEEDELLANVVLQYIREGGTQLEAFAEVGRRLSRTAAACGFRWNSCVRKQYKEEIEQAKQERKMRKKETPSTKESEGQAKVETAVKSHLSWAEVLAFLQAEEQKARDARRTADENRALKNDMEQLQQMVTKLQMEKESLQKQLAAIQEEYKTLLSIMERARKMVTDSGKPAPNAVAEGVDEG”, which “soluble on expression in E. coli” value is on record?
**A.** Its value is “not soluble”.

**Q.** For “MGHHHHHHSHMCSWASYMTNSPTLIVMIGLPARGKTYVSKKLTRYLNWIGVPTKVFNLGVYRREAVKSYKSYDFFRHDNEEAMKIRKQCALVALEDVKAYLTEENGQIAVFDATNTTRERRDMILNFAEQNSFKVFFVESVCDDPDVIAANILEVKVSSPDYPERNRENVMEDFLKRIECYKVTYRPLDPDNYDKDLSFIKVINVGQRFLVNRVQDYIQSKIVYYLMNIHVQPRTIYLCRHGESEFN”, which “soluble on expression in E. coli” value is on record?
**A.** Its value is “soluble”.

**Q.** For “ACAWLEAQEEEEVGFPVRPQVPLRPMTYKAAVDLSHFLKEKGGLEGLIHSQRRQDILDLWIYHTQGYFPDWQNYTPGPGVRYPLTFGWCYKLVPVEPDKVEEANKGENTSLLHPVSLHGMDDPEREVLEWRFDSRLAFHHVARELHPEYFKN”, which “soluble on expression in E. coli” value is on record?
**A.** Its value is “soluble”.

**Q.** For “MSLNLEKINELTAQDMAGVNAAILEQLNSDVQLINQLGYYIVSGGGKRIRPMIAVLAARAVGYEGNAHVTIAALIEFIHTATLLHDDVVDESDMRRGKATANAAFGNAASVLVGDFIYTRAFQMMTSLGSLKVLEVMSEAVNVIAEGEVLQLMNVNDPDITEENYMRVIYSKTARLFEAAAQCSGILAGCTPEEEKGLQDYGRYLGTAFQLIDDLLDYNADGEQLGKNVGDDLNEGKPTLPLLHAMHHGTPEQAQMIRTAIEQGNGRHLLEPVLEAMNACGSLEWTRQRAEEEADKAIAALQVLPDTPWREALIGLAHIAVQRDREGHHHHHH”, which “soluble on expression in E. coli” value is on record?
**A.** Its value is “soluble”.

**Q.** For “MANSLRNVNDYDPFKYRPSYFDLEAPTESFALGKFVDAIEVKQMALDAFSESSMVSIATSQLPKTAYTATSFIESEYYSFPYLFNDQKYYWDYFDYKIPAADFAVLELELDLNNQQDQQIKDHFIDPAIKAYKQLGDSTGLFATKPLTEYQNDTHYLLGYPVVPTDHTQLWECKQGAERFSYGYFYSNMARLTKNLRQGDPNAGSKTHIEYSNELLDKDSMDQGIVRFSTFLGANINYHDYDYRQQGYGLTLTDTNLPGGSSGSLVFNQDKKISSIYSAATESDSVGYAQLLRTPRDVNGISVVSQSYDLIFGDSNTKRYYAMFAKKQQTHLYSEILKSTDEQYRYVVDKQFN”, which “soluble on expression in E. coli” value is on record?
**A.** The value was “soluble”.

**Q.** Which “soluble on expression in E. coli” value does the source give for “MGSDKIHHHHHHLLLEQTNFRKEVNNIKIFNERNMNNLEYIIPECYADITNIYNNVIVMENIKGLTYNDVKDLDIEKKDIFGKLLMKFGLISILYTSAVHCDIHPGNLFFYINEDVKDKPKYQLGLIDFGIVSFPNRENQNFYYTFFKNIQIDKDFSKLEDVLRCILCEKDKFKNLDTIKKRLLKETIERNIIETDNKYDLDFFLKLSYTINVYGFTFTKEFNQICLSLQVVENLLKNLLLDIRKTQDEIIETFNNINKLIT” here?
**A.** Its value is “not soluble”.

**Q.** With “AIAAKDILGEAGLHFDELNKLRVLDPEVTQQTIELKEECKDFVDKIGQFQKIVGGLIELVDQLAKEAENEKMKAIGARNLLKSIAKQREAQQQQLQALIAEKKMQLERYRVEYEALCKVEAEQNEFIDQFIFQK” as the sequence, how does the “soluble on expression in E. coli” value read?
**A.** The value was “soluble”.

**Q.** Which “soluble on expression in E. coli” value does the source give for “MAQHVKFHQYFFQWMQLYKLDAVRPVTYRKYEMSHRQLVTLAPDLKMADLSRLTYQQLLNDYAETHERQTTMDFHRHLKGSLIDALEEGFIDRDPTRKAIIKGIKLEHHHHHH” here?
**A.** Its value is “not soluble”.

**Q.** For “MVDLNKYKRFVETHGMKIPVLSLEYEYQAYLKLGRVEKAETLRKWLNERKG”, which “soluble on expression in E. coli” value is on record?
**A.** Its value is “not soluble”.

**Q.** For “VSEEELKLILAGAEESGAIEPQEEEMIHSILELEETPVREIMTPRVEMVAIEDEATLEDLLALYREHRYSRVPVYRESVDHIVGVAYVQDLLTYYCEEDLKAFKVASIAHPPYFVPENMDAWSLLKELRRRKVHMAIVVDEFGGTAGLVTLEDVIEEIVGEI”, which “soluble on expression in E. coli” value is on record?
**A.** The value was “not soluble”.

**Q.** Which “soluble on expression in E. coli” value does the source give for “ETELEQKAIDYDELERLNSTIVSNLNSGLITVTGDGRIRVFNRYAEALTGIGLAEAYDCHLFDVLPGFRVYADVLANVKRGEFEFIAKMGRKLTIGFSSVPLMLKDSDAAGILLNFQDVT” here?
**A.** The value was “not soluble”.

**Q.** With “SNAWIVPKNSVLFAMYGSIGETAINKIEVATNQAILGIIPKDNILESEFLYYILAKNKNYYSKLGMQTTQKNLNAQIVKSFKIPLPPLEEQKQIAKILTKI” as the sequence, how does the “soluble on expression in E. coli” value read?
**A.** Its value is “not soluble”.

**Q.** With “MILIKNGRVMDPKSQRDQVADVLIDGKQIVKIASAIECQEAQVIDASGLIVAPGLVDIHVHFREPGQTHKEDIHTGALAAAAGGVTTVVMMANTNPVISDVETLQEVLASAAKEKIHIYTNASVTQAFNGKDVTDFKALLEAGAVSFSDDGIPLESSKVLKEAFDLANANQTFISLHEEDPQLNGVLGFNEGIAEEHFHFCGATGVAEYSMIARDVMIAYDRQAHVHIQHLSKAESVQVVAFAQQLGAKVTAEVSPQHFSTTEDLLLIAGTSAKMNPPLRTQRDRLAVIEGLKSGVITVIATDHAPHHKDEKTVDDMTKAPSGMTGLETSLSLGLTHLVEPGHLTLMSLLEKMTLNPALLYGFDAGYLAENGPADLVIFADKQERLITENFASKASNSPFIGNKLKGVVKYTIADGEVVYPN” as the sequence, how does the “soluble on expression in E. coli” value read?
**A.** The value was “not soluble”.

**Q.** With “MNFYSLSVFIALVFSFNAADGHRCHRRGNGGFSKIFDKSTIQKIVPFFLIKIQNQNKNNIF” as the sequence, how does the “soluble on expression in E. coli” value read?
**A.** Its value is “not soluble”.

**Q.** With “MSGCDAWEGDCCSRRCGAQDKEHPRYLIPELCKQFYHLGWVTGTGGGISLKHGDEIYIAPSGVQKERIQPEDMFVYDINEKDISGPSPSKKLKKSQCTPLFMNAYTMRGAGAVIHTHSKAAVMATLLFPGREFKITHQEMIKGIKKCTSGGYYRYDDMLVVPIIENTPEEKDLKDRMAHAMNEYPDSCAVLVRRHGVYVWGETWEKAKTMCECYDYLFDIAVSMKKVGLDPSQLPVGENGIV” as the sequence, how does the “soluble on expression in E. coli” value read?
**A.** Its value is “soluble”.

**Q.** Which “soluble on expression in E. coli” value does the source give for “MTAPLPLDWTFPYVSQRMPALGENMVCTEQPLANQAAMRMLAAGGNAVDAAIAAAITMTVVGPCMNGIGGDLFAIIWDGRQLHGLNASGRAPQAWTREYFSRHDAMPARGWDAVTVPGAVSGWVALSRKFGKLDFARLFEPALHYARHGFLVTPITARQWADQAEPIMQGPGFRDAFAPNGRTPQPGERFICPGQADTLQDIADTHGESFYRGALAARIAAFARETGGALTKADLAAHQADWVDPIGAQYGELTLHEIGPSGQGIGALMALGMLDGLSGKLGQPDSTDFYHYQIEAMKLAFADINRYVADPASMREVSAEMLLDRAYLATRAGAIDPAEARYPGPGKPHNGGTTYLTAADADGMMVSLIQSNFKGFGSGVVVPGTGIALHNRGWGFNLIEGHPNEVGPGKRPFHTIIPGFLMRDGEPLMSFGVMGGSLQAQGHVQVTVRTAAGQNPQAIVDAPRWRILEDNRTVMVEWNFPDAAVAGLRERGHAVTVAPRFSDEFGGSQAIMRIEGGYLGASDHRKDGQASALLEHHHHHH” here?
**A.** Its value is “not soluble”.
